Experimental findings from PMC4997814 are described below.

One test concerns the target T1, Recombinant CYP26B1 (UniProt Q9NR63).
T1 sequence: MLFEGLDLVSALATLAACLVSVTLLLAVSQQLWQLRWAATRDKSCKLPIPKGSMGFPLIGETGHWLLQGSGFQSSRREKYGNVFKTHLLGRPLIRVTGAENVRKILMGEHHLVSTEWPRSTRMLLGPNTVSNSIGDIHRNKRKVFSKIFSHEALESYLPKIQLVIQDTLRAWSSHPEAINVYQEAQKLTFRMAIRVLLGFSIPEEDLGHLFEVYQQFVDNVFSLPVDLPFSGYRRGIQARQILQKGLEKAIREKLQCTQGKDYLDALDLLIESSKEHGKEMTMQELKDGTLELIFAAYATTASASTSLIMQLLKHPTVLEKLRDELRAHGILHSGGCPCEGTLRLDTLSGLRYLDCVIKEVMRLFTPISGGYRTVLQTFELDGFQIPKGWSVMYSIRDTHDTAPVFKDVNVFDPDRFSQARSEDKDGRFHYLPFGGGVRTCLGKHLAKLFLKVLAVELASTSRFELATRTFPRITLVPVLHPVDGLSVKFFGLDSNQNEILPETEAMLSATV

For the next test, the target named is CYP2C8 Supersomes (UniProt P10632).
Another test concerns the target CYP3A4 Supersomes (UniProt P08684).
Sequence of UniProt P08684 (P08684 whole entry): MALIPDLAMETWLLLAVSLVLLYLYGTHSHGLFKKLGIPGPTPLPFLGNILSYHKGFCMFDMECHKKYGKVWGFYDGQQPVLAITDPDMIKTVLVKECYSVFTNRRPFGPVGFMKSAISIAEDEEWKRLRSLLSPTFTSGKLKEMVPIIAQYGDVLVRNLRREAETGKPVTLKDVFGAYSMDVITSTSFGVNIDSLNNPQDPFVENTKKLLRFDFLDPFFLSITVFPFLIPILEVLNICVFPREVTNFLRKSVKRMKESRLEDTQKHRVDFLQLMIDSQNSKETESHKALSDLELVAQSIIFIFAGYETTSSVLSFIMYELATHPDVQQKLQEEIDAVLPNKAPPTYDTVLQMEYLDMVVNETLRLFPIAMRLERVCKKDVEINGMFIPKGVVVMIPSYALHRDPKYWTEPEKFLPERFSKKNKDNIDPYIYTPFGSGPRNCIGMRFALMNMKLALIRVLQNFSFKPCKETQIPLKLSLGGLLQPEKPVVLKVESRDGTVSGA

Sequence of UniProt P10632 (P10632 whole entry): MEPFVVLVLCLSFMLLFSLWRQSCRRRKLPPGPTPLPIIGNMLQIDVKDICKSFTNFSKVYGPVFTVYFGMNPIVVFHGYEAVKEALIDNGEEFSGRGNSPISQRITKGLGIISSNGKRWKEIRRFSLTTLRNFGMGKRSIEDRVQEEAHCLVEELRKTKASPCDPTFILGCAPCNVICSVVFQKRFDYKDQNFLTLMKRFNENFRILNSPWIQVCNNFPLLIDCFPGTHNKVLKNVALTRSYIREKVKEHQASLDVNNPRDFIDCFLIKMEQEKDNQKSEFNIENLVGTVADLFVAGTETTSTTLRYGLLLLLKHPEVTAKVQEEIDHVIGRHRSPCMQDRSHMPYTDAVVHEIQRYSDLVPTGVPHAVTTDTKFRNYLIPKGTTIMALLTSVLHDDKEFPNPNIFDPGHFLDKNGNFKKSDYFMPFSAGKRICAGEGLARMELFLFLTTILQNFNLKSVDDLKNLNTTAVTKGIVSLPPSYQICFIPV

As to “Cellular retinoic acid binding protein I (CRABP-I) (from UniProt P29762 1-137) (natural protein)”, the apparent Km of 4-OH-RA formation by CYP26B1 with holo-CRABP-I as substrate in the test with Recombinant CYP26B1 amounted to 0.0217 µM. This molecule also registered a decrease of 4-OH-RA formation by CYP2C8 with 1 uM holo-CRABP-I against free atRA in the test with CYP2C8 Supersomes of 98%. The molecule also returned a decrease of 4-OH-RA formation by CYP3A4 with 1 uM holo-CRABP-I against free atRA with CYP3A4 Supersomes of 98%.

B1: Cellular retinoic acid binding protein II (CRABP-II) (natural protein)
chain: MPNFSGNWKIIRSENFEELLKVLGVNVMLRKIAVAAASKPAVEIKQEGDTFYIKTSTTVRTTEINFKVGEEFEEQTVDGRPCKSLVKWESENKMVCEQKLLKGEGPKTSWTRELTNDGELILTMTADDVVCTRVYVRE
In the case of B1, the apparent Km of 4-OH-RA formation by CYP26B1 with holo-CRABP-II as substrate with Recombinant CYP26B1 worked out at 0.0243 µM.
